# Patent US20110110942A1
# Biological target: p75 (Homo sapiens (Human)) (UniProt P08138)
# Experiment: ELISA, format not described
# Sequence of UniProt P08138 (P08138 29-250 limits assumed): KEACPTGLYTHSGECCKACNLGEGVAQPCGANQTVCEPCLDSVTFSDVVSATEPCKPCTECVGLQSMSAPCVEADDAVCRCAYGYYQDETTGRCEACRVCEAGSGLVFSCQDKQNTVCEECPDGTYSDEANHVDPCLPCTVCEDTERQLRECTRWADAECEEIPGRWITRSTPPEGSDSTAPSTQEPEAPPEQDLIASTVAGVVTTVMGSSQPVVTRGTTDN
substance,measurement,value
Amyloid Precursor Protein (from UniProt P05067 18-286) (ligand),EC50,300 nM
